B10: ScaC passenger domain (residues 33-223), purified (domain or fragment)
chain: VSNMNLDISNMGEAREGLRKDIAEVSKLLCMLEKSTASSKNLTMRLQQSDTRENEQSNHIRLLITEIESINKENDCLRQKNNQLKIKLHQLKVKLEQALARNTDLQQILPKSQAEMDNLRKQNEQLKIQLQQLQVKLQDLMSLQNKCSNLALINSVKLNYIRDIKYIALANIVIVKALASTFTEKLSKSNR

What was measured:
[1] = target: T1, full-length mouse BICD2 (mouse), Q921C5; test: SEC-MALS; conditions: remark: other sources report otherwise
T1 chain: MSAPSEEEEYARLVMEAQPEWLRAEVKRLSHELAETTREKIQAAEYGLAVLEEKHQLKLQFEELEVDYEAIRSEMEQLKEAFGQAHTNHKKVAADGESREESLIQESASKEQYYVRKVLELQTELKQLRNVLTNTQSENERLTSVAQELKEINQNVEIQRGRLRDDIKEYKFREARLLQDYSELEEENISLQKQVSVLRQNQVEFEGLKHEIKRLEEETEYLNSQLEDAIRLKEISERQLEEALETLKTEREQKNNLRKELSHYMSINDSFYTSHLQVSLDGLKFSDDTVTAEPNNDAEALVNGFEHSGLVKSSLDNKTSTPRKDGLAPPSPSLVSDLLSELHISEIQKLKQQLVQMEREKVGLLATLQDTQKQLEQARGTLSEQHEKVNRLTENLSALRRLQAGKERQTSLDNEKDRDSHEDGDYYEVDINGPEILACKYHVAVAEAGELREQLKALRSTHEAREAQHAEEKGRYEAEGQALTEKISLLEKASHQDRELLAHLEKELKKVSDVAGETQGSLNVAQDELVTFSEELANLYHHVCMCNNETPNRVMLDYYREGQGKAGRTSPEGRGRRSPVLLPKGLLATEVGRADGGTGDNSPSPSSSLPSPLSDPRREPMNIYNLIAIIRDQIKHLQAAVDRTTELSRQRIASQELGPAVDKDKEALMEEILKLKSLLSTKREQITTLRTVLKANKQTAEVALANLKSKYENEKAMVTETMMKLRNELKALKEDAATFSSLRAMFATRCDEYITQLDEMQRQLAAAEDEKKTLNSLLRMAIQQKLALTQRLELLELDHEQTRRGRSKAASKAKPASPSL

full-length mouse BICD2 [2] = target: T2, full-length mouse BICD2 (mouse, UniProt Q921C5 1-820); test: SEC
[3] = target: B10; test: SEC
[4] = target: Rab6^Q72L (GTP-locked Rab6 mutant) (human, UniProt P20340 1-208, Q72L); test: pull-down
Rab6^Q72L (GTP-locked Rab6 mutant), sequence (P20340 whole entry Q72L): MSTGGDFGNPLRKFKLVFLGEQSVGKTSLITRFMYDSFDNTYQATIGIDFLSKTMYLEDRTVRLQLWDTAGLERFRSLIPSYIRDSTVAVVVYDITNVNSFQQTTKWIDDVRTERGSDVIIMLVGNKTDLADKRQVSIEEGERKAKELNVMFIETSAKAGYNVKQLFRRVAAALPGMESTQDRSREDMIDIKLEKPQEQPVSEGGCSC

[5] = target: B10; test: pull-down
[6] = target: BICD2C (BICD2 residues 342-800) (mouse, UniProt Q921C5 342-800); test: SEC
[7] = target: BICD2-AF488 (AF488-labelled BICD2-SNAP) (mouse, UniProt Q921C5 1-820, Alexa Fluor 488 on the SNAP tag); test: single-molecule TIRF co-migration on microtubules
full-length mouse BICD2 [8] = target: T2, full-length mouse BICD2; test: SEC-MALS
SEC-MALS = target: the molecule itself; test: SEC-MALS

B1: full-length mouse BICD2, Q921C5 1-820 (natural protein)
chain: MSAPSEEEEYARLVMEAQPEWLRAEVKRLSHELAETTREKIQAAEYGLAVLEEKHQLKLQFEELEVDYEAIRSEMEQLKEAFGQAHTNHKKVAADGESREESLIQESASKEQYYVRKVLELQTELKQLRNVLTNTQSENERLTSVAQELKEINQNVEIQRGRLRDDIKEYKFREARLLQDYSELEEENISLQKQVSVLRQNQVEFEGLKHEIKRLEEETEYLNSQLEDAIRLKEISERQLEEALETLKTEREQKNNLRKELSHYMSINDSFYTSHLQVSLDGLKFSDDTVTAEPNNDAEALVNGFEHSGLVKSSLDNKTSTPRKDGLAPPSPSLVSDLLSELHISEIQKLKQQLVQMEREKVGLLATLQDTQKQLEQARGTLSEQHEKVNRLTENLSALRRLQAGKERQTSLDNEKDRDSHEDGDYYEVDINGPEILACKYHVAVAEAGELREQLKALRSTHEAREAQHAEEKGRYEAEGQALTEKISLLEKASHQDRELLAHLEKELKKVSDVAGETQGSLNVAQDELVTFSEELANLYHHVCMCNNETPNRVMLDYYREGQGKAGRTSPEGRGRRSPVLLPKGLLATEVGRADGGTGDNSPSPSSSLPSPLSDPRREPMNIYNLIAIIRDQIKHLQAAVDRTTELSRQRIASQELGPAVDKDKEALMEEILKLKSLLSTKREQITTLRTVLKANKQTAEVALANLKSKYENEKAMVTETMMKLRNELKALKEDAATFSSLRAMFATRCDEYITQLDEMQRQLAAAEDEKKTLNSLLRMAIQQKLALTQRLELLELDHEQTRRGRSKAASKAKPASPSL
- stoichiometry N [1]: 2

B2: ScaC[50-159] (domain or fragment)
chain: LRKDIAEVSKLLCMLEKSTASSKNLTMRLQQSDTRENEQSNHIRLLITEIESINKENDCLRQKNNQLKIKLHQLKVKLEQALARNTDLQQILPKSQAEMDNLRKQNEQLK
- binding result (full-length mouse BICD2 [2]): binds

B3: CC3 of BICD1 (mouse BICD1 residues 713-802) (domain or fragment)
chain: YENEKAMVTETMTKLRNELKALKEDAATFSSLRAMFATRCDEYVTQLDEMQRQLAAAEDEKKTLNTLLRMAIQQKLALTQRLEDLEFDHE
- binding result [3]: binds

B4: BICD2^711-800 (CC3 domain of BICD2) (domain or fragment)
chain: YENEKAMVTETMMKLRNELKALKEDAATFSSLRAMFATRCDEYITQLDEMQRQLAAAEDEKKTLNSLLRMAIQQKLALTQRLELLELDHE
- binding result [4]: binds
- binding result [5]: binds

B5: Strep-BICD2^711-800 L742A (domain or fragment)
chain: YENEKAMVTETMMKLRNELKALKEDAATFSSARAMFATRCDEYITQLDEMQRQLAAAEDEKKTLNSLLRMAIQQKLALTQRLELLELDHE
- binding result [5]: binds

B6: Strep-BICD2^711-800 L786A (domain or fragment)
chain: YENEKAMVTETMMKLRNELKALKEDAATFSSLRAMFATRCDEYITQLDEMQRQLAAAEDEKKTLNSLLRMAIQQKAALTQRLELLELDHE
- binding result [5]: binds

B7: Strep-BICD2^711-800 L742A/L786A (domain or fragment)
chain: YENEKAMVTETMMKLRNELKALKEDAATFSSARAMFATRCDEYITQLDEMQRQLAAAEDEKKTLNSLLRMAIQQKAALTQRLELLELDHE
- binding result [5]: binds

B8: BICD2N (BICD2 residues 1-400) (domain or fragment)
chain: MSAPSEEEEYARLVMEAQPEWLRAEVKRLSHELAETTREKIQAAEYGLAVLEEKHQLKLQFEELEVDYEAIRSEMEQLKEAFGQAHTNHKKVAADGESREESLIQESASKEQYYVRKVLELQTELKQLRNVLTNTQSENERLTSVAQELKEINQNVEIQRGRLRDDIKEYKFREARLLQDYSELEEENISLQKQVSVLRQNQVEFEGLKHEIKRLEEETEYLNSQLEDAIRLKEISERQLEEALETLKTEREQKNNLRKELSHYMSINDSFYTSHLQVSLDGLKFSDDTVTAEPNNDAEALVNGFEHSGLVKSSLDNKTSTPRKDGLAPPSPSLVSDLLSELHISEIQKLKQQLVQMEREKVGLLATLQDTQKQLEQARGTLSEQHEKVNRLTENLSALR
- binding result [6]: binds

B9: ScaC-AF647 (AF647-labelled ScaC-SNAP) (domain or fragment)
chain: VSNMNLDISNMGEAREGLRKDIAEVSKLLCMLEKSTASSKNLTMRLQQSDTRENEQSNHIRLLITEIESINKENDCLRQKNNQLKIKLHQLKVKLEQALARNTDLQQILPKSQAEMDNLRKQNEQLKIQLQQLQVKLQDLMSLQNKCSNLALINSVKLNYIRDIKYIALANIVIVKALASTFTEKLSKSNR
modifications: Alexa Fluor 647 on the SNAP tag
- binding result [7]: binds

Binder: B10
- stoichiometry N (full-length mouse BICD2 [8]): 1 ScaC chains per BICD2 chain (2:2)
- stoichiometry N (SEC-MALS): 2

From paper doi:10.1101/2024.04.11.589026 (bioRxiv, 2024)
